What is called Kd is the free concentration of one partner at which half of the binding sites on the other are occupied at equilibrium, for simple one-to-one binding.

The target of test [1] is beta1-adrenergic receptor TIL (UniProt P08588). Conditions: cited from earlier work.
Test [2] addresses T1, full-length rat endophilin A1 (C108S, E241C, C294S, C295S), labeled with Alexa 594-maleimide (rat, UniProt O35179 1-352, C108S | E241C | C294S | C295S, Alexa 594-maleimide on the cysteine (E241C)).
T1 construct: endophilin A1, rat, full length; The introduction calls endophilin a dimeric protein; also called endophilin-Alexa 594; single cysteine mutant of rat endophilin A1
In words: confocal fluorescence imaging of recruitment to peptide-conjugated GUVs; TIL-Alexa 488 covalently conjugated (cysteine-maleimide) to GUVs of MCC-PE/DOPC/DiD 5:94.5:0.5; Alexa 594-labeled protein added in solution; HEPES buffer (20 mM HEPES, 150 mM NaCl, 1 mM TCEP, pH 7.4); room temperature. The settings on record: both partners purified.

T1 sequence (O35179 whole entry C108S/E241C/C294S/C295S): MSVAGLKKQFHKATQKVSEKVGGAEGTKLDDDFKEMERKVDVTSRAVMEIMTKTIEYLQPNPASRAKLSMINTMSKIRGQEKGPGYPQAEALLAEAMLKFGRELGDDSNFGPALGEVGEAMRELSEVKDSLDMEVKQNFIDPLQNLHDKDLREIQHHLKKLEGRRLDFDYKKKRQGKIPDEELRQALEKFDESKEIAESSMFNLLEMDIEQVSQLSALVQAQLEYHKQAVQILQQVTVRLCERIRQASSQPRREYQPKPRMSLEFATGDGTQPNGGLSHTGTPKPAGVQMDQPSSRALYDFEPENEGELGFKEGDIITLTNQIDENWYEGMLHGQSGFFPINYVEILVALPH

With endophilin A1 (from UniProt Q99962), the Kd in test [1] was 47 nM.

B1: third intracellular loop (TIL) of the β1-adrenergic receptor (amino acids 246–325), labeled with Alexa 488 (domain or fragment, UniProt P08588 246-325, looked up)
chain: RVFREAQKQVKKIDSCERRFLGGPARPPSPSPSPVPAPAPPPGPPRPAAAAATAPLANGRAGKRRPSRLVALREQKALKT
modifications: Alexa 488 on the N-terminal amine (30 to 50% labeling); Cys261 coupled to the maleimide lipid MCC-PE in the experiments with TIL-conjugated vesicles
notes: β1-adrenergic receptor, third intracellular loop, amino acids 246–325, cloned from the pcDNA3-Flag beta-1-adrenergic-receptor vector; 80 residues, 8861 Da; Cloned into BamHI/EcoRI of pGEX6p1 and cut with PreScission protease, so a few vector residues may remain at the N-terminus (surmise); also called TIL peptide; TIL-Alexa 488; source: E. coli BL21-CodonPlus (DE3)-RIL, purified (GST trap, …)
As to B1, the binding result in test [2] is “binds”.

These data come from paper PMC7948419, “Endophilin recruitment drives membrane curvature generation through coincidence detection of GPCR loop interactions and negative lipid charge” (The Journal of Biological Chemistry, 2020).
